According to patent publication US20190284297A1 (NOVIMMUNE, published 2019):
Changes are numbered by the printed parent chain.

B1: IgG 1D8 (antibody, V domains shown)
VH: EVQLVESGGGLVQPGGSLKLSCAASGFTFNTYAMNWVRQAPGKGLEWVGRIRSKYNNYATYYADSVKDRFTISRDDSKNTAYLQMNSLKTEDTAVYYCVRHGNFGNSYVSWFAYWGQGTLVTVSS
VL: QTVVTQEPSLTVSPGGTVTLTCRSSTGAVTTSNYANWFQQKPGQAPRGLIGGTNKRAPGTPARFSGSLLGGKAALTLSGAQPEDEAEYYCALWYDGTWVFGGGTKLTVL
notes: also called L3sp34-G1-1-R2-P1_D8
B2: IgG 1A11 (antibody, V domains shown)
VH: B1 VH
VL: B1 VL with T97W
notes: also called L3sp34-G1-1-R2-P1_A11
B3: IgG 1A10 (antibody, V domains shown)
VH: B1 VH
VL: B1 VL with D95K, T97Y
notes: also called L3sp34-G1-2-R2-P1_A10
B4: IgG 1A4 (antibody, V domains shown)
VH: B1 VH
VL: B1 VL with D95K, G96Q, T97R
notes: also called L3sp34-G1-2-R2-P1_A4
B5: IgG 1F8 (antibody, V domains shown)
VH: B1 VH
VL: B1 VL with T97K
notes: also called L3sp34-G1-2-R2-P1_F8
B6: IgG 1B6 (antibody, V domains shown)
VH: B1 VH
VL: B1 VL with D95A, G96N, T97R
notes: also called L3sp34-G1-1-R2-P1_B6

Molecular target: T1, human CD3ε on T cells (Jurkat T cell line; CD4+ and CD8+ T cells from healthy human donors) (human, UniProt P07766 23-207)
T1 construct: whole, on cells
T1 sequence (P07766 23-207): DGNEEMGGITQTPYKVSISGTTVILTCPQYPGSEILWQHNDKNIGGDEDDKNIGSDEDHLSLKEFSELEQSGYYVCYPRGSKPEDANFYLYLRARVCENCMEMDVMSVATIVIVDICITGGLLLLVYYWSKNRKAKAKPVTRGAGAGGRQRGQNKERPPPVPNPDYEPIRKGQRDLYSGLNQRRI
Experiment: FACS on CD4+ T cells from PBMCs of healthy donors, antibody at 0.1 µg/ml
Method: (§1) Binding was also evaluated by FACS on different cell populations including T cell lines and natural cell populations derived from healthy blood donors. First, control and antiCD3ε candidates were tested at different concentration on the human T cell line Jurkat. […] Binding to native cell populations was performed by isolating PBMCs from healthy donors and evaluating binding to CD4+ and CD8+ T cells as well as B cells.

First: B1
Second: B2
The “MFI on CD4+ T cells” value of the first is higher: 286 MFI for the first, 205 MFI for the second.

First: B3
Second: B4
The “MFI on CD4+ T cells” value of the first is lower: 96 MFI for the first, 284 MFI for the second.

First: B5
Second: B6
The “MFI on CD4+ T cells” value of the first is higher: 284 MFI for the first, 231 MFI for the second.

Molecular target: T1, human CD3ε on T cells (Jurkat T cell …)
Experiment: FACS on CD8+ T cells from PBMCs of healthy donors, antibody at 0.1 µg/ml
Method: as §1

Going from B1 to B2, the “MFI on CD8+ T cells” value falls from 161 MFI to 119 MFI.

Going from B3 to B4, the “MFI on CD8+ T cells” value rises from 43 MFI to 173 MFI.

Compared with B5, B6 is lower in “MFI on CD8+ T cells” value: 157 MFI for the first, 130 MFI for the second.
